Among the data in patent US20240228656A1 (HARPOON THERAPEUTICS, published 2024) are binding result and Kd values, retold here.

Test [1] has as its target T1, EpCAM H13 Mask27 L040 (EpCAM targeting ProTriTAC with H13).
T1 construct: trispecific prodrug: masked anti-albumin sdAb-cleavable linker L040-anti-CD3 scFv-anti-EpCAM sdAb H13-His6; also called H13 ProTriTAC (L040)
As to the kind of experiment: binding assay, affinity summary.

Test [2] deals with T2, EpCAM H90 Mask27 L040 (EpCAM targeting ProTriTAC with H90).
T2 construct: trispecific prodrug: masked anti-albumin sdAb-L040-anti-CD3 scFv-anti-EpCAM sdAb H90-His6
Briefly: binding assay with kinetics, affinity summary (instrument not stated).

Test [3] deals with T3, EpCAM H90.2 Mask27 L040 (EpCAM targeting ProTriTAC with H90.2).
T3 construct: trispecific prodrug; also called H90.2 ProTriTAC (L040)
The description is as above.

T2 sequence (chain, as listed by the source): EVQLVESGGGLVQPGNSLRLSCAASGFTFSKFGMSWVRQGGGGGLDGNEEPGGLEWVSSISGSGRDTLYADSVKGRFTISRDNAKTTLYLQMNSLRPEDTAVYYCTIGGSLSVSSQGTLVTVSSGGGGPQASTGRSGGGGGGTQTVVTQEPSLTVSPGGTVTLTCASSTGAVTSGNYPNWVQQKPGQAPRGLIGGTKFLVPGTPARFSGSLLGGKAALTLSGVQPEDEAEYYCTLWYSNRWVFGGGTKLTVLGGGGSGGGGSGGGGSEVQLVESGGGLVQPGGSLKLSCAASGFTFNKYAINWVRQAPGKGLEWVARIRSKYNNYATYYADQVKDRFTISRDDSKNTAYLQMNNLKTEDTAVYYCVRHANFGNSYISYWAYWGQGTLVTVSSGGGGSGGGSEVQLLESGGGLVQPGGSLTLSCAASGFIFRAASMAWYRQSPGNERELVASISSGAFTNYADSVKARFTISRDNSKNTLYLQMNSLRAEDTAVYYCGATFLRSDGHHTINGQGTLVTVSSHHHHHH
T3 sequence (chain, as listed by the source): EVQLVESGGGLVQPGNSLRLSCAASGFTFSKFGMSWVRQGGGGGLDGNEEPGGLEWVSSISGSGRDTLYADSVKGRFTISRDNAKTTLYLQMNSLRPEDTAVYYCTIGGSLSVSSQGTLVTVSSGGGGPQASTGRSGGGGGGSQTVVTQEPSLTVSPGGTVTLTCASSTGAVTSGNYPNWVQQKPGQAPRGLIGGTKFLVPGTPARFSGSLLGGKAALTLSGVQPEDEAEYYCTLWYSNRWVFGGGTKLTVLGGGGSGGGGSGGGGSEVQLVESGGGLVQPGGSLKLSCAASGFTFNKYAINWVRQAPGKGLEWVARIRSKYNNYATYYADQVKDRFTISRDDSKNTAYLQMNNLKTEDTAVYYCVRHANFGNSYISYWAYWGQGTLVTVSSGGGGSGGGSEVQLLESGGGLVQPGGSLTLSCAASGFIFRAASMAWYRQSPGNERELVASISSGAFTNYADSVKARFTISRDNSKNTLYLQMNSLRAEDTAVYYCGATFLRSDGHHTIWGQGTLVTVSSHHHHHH
T1 sequence (chain, as listed by the source): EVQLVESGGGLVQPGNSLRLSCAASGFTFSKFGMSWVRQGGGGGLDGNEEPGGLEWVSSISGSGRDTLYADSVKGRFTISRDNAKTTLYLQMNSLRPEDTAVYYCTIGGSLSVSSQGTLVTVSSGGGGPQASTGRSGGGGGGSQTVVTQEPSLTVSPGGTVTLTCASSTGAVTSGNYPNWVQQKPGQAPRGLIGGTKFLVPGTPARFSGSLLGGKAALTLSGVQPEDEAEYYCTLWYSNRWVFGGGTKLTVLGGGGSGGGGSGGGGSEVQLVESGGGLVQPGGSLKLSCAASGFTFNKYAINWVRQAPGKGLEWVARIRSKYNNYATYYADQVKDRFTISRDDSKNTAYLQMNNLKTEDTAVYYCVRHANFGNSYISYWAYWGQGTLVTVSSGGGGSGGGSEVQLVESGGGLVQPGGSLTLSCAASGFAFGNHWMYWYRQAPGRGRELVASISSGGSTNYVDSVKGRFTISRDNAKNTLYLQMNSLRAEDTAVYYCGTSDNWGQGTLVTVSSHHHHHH

B1: mouse EpCAM (other)
chain: QRDCVCDNYKLATSCSLNEYGECQCTSYGTQNTVICSKLASKCLAMKAEMTHSKSGRRIKPEGAIQNNDGLYDPDCDEQGLFKAKQCNGTATCWCVNTAGVRRTDKDTEITCSERVRTYWIIIELKHKERESPYDHQSLQTALQEAFTSRYKLNQKFIKNIMYENNVITIDLMQNSSQKTQDDVDIADVAYYFEKDVKGESLFHSSKSMDLRVNGEPLDLDPGQTLIYYVDEKAPEFSMQGLT
modifications: biotinylated
notes: also called muEpCAM (biotinylated version of mouse EpCAM antigen)
Turning to B1, the binding result in test [1] is on record as “no binding”. The Kd was determined as 0.26 nM in test [2] and 0.15 nM in test [3].

The Kd is the constant that tells how readily two partners part at equilibrium.
